Source: PMC7395439, “Identification of the initial nucleocapsid recognition element in the HIV-1 RNA packaging signal”

Experiments:
[1] = target: HIV-1 nucleocapsid protein (NC) (HIV-1 NL4-3) (UniProt P12493); assay: ITC; conditions: ITC: 10 mM Tris-HCl pH 7.0, 140 mM KCl, 10 mM NaCl, 5 mM MgCl2, 5 mM TCEP, 30 °C; NC (120-240 µM) titrated into RNA (0.6-4 µM)
[2] = target: T1, HIV-1 nucleocapsid protein (NC) (HIV-1 NL4-3, UniProt P12493); assay: ITC; exothermic sites, n=2.8±0.3; ITC: 10 mM Tris-HCl pH 7.0, 140 mM KCl, 10 mM NaCl, 5 mM MgCl2, 5 mM TCEP, 30 °C; NC (120-240 µM) titrated into RNA (0.6-4 µM); conditions: protein: recombinant; tags: none stated; hairpin, unpaired 5'-GA and AG-3' ends
[3] = target: T1, HIV-1 nucleocapsid protein (NC); assay: ITC; endothermic sites, n=2.3±0.2; ITC: 10 mM Tris-HCl pH 7.0, 140 mM KCl, 10 mM NaCl, 5 mM MgCl2, 5 mM TCEP, 30 °C; NC (120-240 µM) titrated into RNA (0.6-4 µM); conditions: protein: recombinant; tags: none stated; hairpin, unpaired 5'-GA and AG-3' ends
[4] = target: T1, HIV-1 nucleocapsid protein (NC); assay: ITC; exothermic only, n=1.8±0.1; ITC: 10 mM Tris-HCl pH 7.0, 140 mM KCl, 10 mM NaCl, 5 mM MgCl2, 5 mM TCEP, 30 °C; NC (120-240 µM) titrated into RNA (0.6-4 µM); conditions: protein: recombinant; tags: none stated; hairpin with single-stranded 3' GGAG region
[5] = target: T1, HIV-1 nucleocapsid protein (NC); assay: ITC; exothermic sites, n=6.6±0.2 per dimer; ITC: 10 mM Tris-HCl pH 7.0, 140 mM KCl, 10 mM NaCl, 5 mM MgCl2, 5 mM TCEP, 30 °C; NC (120-240 µM) titrated into RNA (0.6-4 µM); conditions: protein: recombinant; tags: none stated; duplex dimer of 2 strands
[6] = target: T1, HIV-1 nucleocapsid protein (NC); assay: ITC; exothermic only, n=1.2±0.3; ITC: 10 mM Tris-HCl pH 7.0, 140 mM KCl, 10 mM NaCl, 5 mM MgCl2, 5 mM TCEP, 30 °C; NC (120-240 µM) titrated into RNA (0.6-4 µM); conditions: protein: recombinant; tags: none stated; hairpin, blunt
[7] = target: T1, HIV-1 nucleocapsid protein (NC); assay: ITC; exothermic only, n=1.2±0.1; ITC: 10 mM Tris-HCl pH 7.0, 140 mM KCl, 10 mM NaCl, 5 mM MgCl2, 5 mM TCEP, 30 °C; NC (120-240 µM) titrated into RNA (0.6-4 µM); conditions: protein: recombinant; tags: none stated; hairpin, blunt

5'-L (5'-L344)
Kd [1]: 880 nM

TAR-PolyA
Kd [1]: 1320 nM

5'-LΔPBS
Kd [1]: 760 nM

GAUUUUGACUAGCGGAGGCUAGAAGGAGAG (structured_RNA) [ΨHP]
Kd [2]: 1540 ± 240 nM | Kd [3]: 26 ± 21 nM

GACUAGCGGAGGCUAGAAGGAG (structured_RNA) [Ψ-fragment]
Kd [4]: 450 ± 30 nM

GGCAGGACUCGGCUUGCUGAAGCGCGCACGGCAAGAGGCGAGGGGCC (structured_RNA) [DIS]
Kd [5]: 340 ± 30 nM

GGUUUUGACUAGCGGAGGCUAGAAGGAGCC (structured_RNA) [ΨHP-stable]
Kd [6]: 300 ± 150 nM

GGACUAGCGGAGGCUAGUCC (structured_RNA) [Ψ-apical loop]
Kd [7]: 320 ± 30 nM
